In the nanobody polyreactivity screen of Harvey et al. (2022):

Assay: yeast display, Sf9 membrane polyspecificity reagent, FACS + sequencing; frameworks hold sequencing errors
Method in brief: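 Galactose-induced (36–48 hours) yeast carrying a synthetic nanobody display library were exposed to 10% biotinylated, detergent-solubilized Sf9 membrane reagent at 4 °C for 1 hour. FACS followed streptavidin microbead enrichment, using low and high (top ~1%) gates for expression (anti-HA) and reagent binding (streptavidin). Colony PCR, MiSeq 2 × 250 sequencing and CDR-length filtering followed. Labels for polyreactivity reflect the gate of origin.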

Row | Sequence | polyreactivity (PSR sort gate)
1 | QVQLVESGGGLVQAGGSLRLSCAASGRTFKPYAMGWYRQAPGKERELVAAISSGVSTHYADSVKGRFTISRDNAKNTVYLQMNSLKPEDTAVYYCAADYWVNYWFDYWGQGTQVTVSS | low polyreactivity
2 | QVQLVESGGGLVQAGGSLRLSCAASGRTFKPYTMGWYRQAPGKERELVATISTGTTSTYYADSVKGRFTISRDNAKNTVYLQMNSLKPEDTAVYYCAADSDSPVTYQSEDALEYWGQGTQVTVSS | low polyreactivity
3 | QVQLVESGGGLVQAGGSLRLSCAASGRTFKQYAMGWYSQAPGKERELVAAISRTGGRTYYADSVKGRFTISRDNAKNTVYLQMNSLKPEDTAVYFCNAVYYWYKGDYWGQGTQVTVSS | high polyreactivity
4 | QVQLVESGGGLVQAGGSLRLSCAASGRTFKRNAKGWYRQAPGKERELVAAISGTGASTYYADSVKGRFTISRDNAKNTVYLQMNSLKPEDTAVYYCAKYRYISNPVYLGDYWGQGTQVTVSS | high polyreactivity
5 | QVQLVESGGGLVQAGGSLRLSCAASGRTFKRNTMGWYRQAPGKERELVAAISGTGSTNYADSVKGRFTISRDNAKNTVYLQMNSLKPEDTAVYYCGADDFSTVEYDYWGQGTQVTVSS | low polyreactivity
6 | QVQLVESGGGLVQAGGSLRLSCAASGRTFKSYAMGWYRQAPGKERELVAAITWSGGSTYYADSVKGRFTISRDNAKNTVYLQMNSLKPEDTAVYYCAADSVYYYWYGYDYWGQGTQVTVSS | low polyreactivity
7 | QVQLVESGGGLVQAGGSLRLSCAASGRTFKWYAMGWYRQAPGKERELVASISWSGGGTYYADSVKGRFTISRDNAKNTVYLQMNSLKPEDTAVYECAAEYYNWGDYGYDYWGQGTQVTVSS | high polyreactivity
8 | QVQLVESGGGLVQAGGSLRLSCAASGRTFKYNAMGWSRPAPGKERELVAAISWSGGRTYYADSVKGRFTISRDNAKNTVYLQMNSLKPEDTAVYYCAAGVFKKYRPSGRYYYWGHGTQVTVSS | high polyreactivity
9 | QVQLVESGGGLVQAGGSLRLSCAASGRTFKYNAMGWYRQAPGKERELVAAISSDDSTNYADSVKGRFTISRDNAKNTVYLQMNSLKPEDTAVYYCAARYGYSKWPDRVQAYKHDYWGQGTQVTVSS | low polyreactivity
10 | QVQLVESGGGLVQAGGSLRLSCAASGRTFKYNAMGWYRQAPGKERELVAAISSTGSTNYADSVKGRFTISRDNAKNTVYLQMNSLKPEDTAVYYCAASYYFVQWGWYYYWGQGTQVTVSS | low polyreactivity
11 | QVQLVESGGGLVQAGGSLRLSCAASGRTFKYNAMGWYRQAPGKERELVATISGSGGRTYYADSVKGRFTISRDNAKNTVYLQMNSLKPEDTAVYYCNAPRVKWLDWGQGTQVTVSS | high polyreactivity
12 | QVQLVESGGGLVQAGGSLRLSCAASGRTFKYNAMGWYRQAPGNERELVAAISRSGGSTYYADSVKGRFTISRDNAKNTVYLQMNSLKPEDTAVYYCNAEYLWIRHIAEDYWGQGTQVTVSS | low polyreactivity
13 | QVQLVESGGGLVQAGGSLRLSCAASGRTFKYYAMGWYRQAPGKERELVAAISSRGGSTYYADSVKGRFTISRDNAKNTVYLQMNSLKPEDTAVYYCAKGTYLSTSTVANDYWGQGTQVTVSS | high polyreactivity
14 | QVQLVESGGGLVQAGGSLRLSCAASGRTFKYYAMGWYRQAPGKERELVATISYNGASTYYADSVKGRFTISRDNAKNTVYLQMNSLKPEDTAVYYCAAGYLWRGRLGYWGQGTQVTVSS | high polyreactivity
15 | QVQLVESGGGLVQAGGSLRLSCAASGRTFKYYAMGWYSQAPGKERELVAAITRSGVSTSYADSVKGRFTISRDNAKNTVYLQMNSLKPEDTAVYYCNVYGYTYYTRGVGYWGQGTQVTVSS | high polyreactivity
16 | QVQLVESGGGLVQAGGSLRLSCAASGRTFLDNAMGWYRQAPGNEWELVATICSSGGTRYYADSVKGSFTISRDNAKNTVYLPMHSQKPEDTAVYYCNALWWGRYYRPYVTPVLGRMEYWGQGTQVTVSS | low polyreactivity
17 | QVQLVESGGGLVQAGGSLRLSCAASGRTFLFNGMGWYRQAPGKERELVASITRGGSTYADSVKGRFTISRDNAKNTVYLQMNSLKPEDTAVYYCAALTSRTYLWTTRPYDYWGQGTQVTVSS | high polyreactivity
18 | QVQLVESGGGLVQAGGSLRLSCAASGRTFLGNAMGWYRQAPGKERELVAAIRYSGGRTYYADSVKGRFTISRDNANNTVYLQMNSLKPEDTAVYYCAAELDGSNYPLDYWGQGTKVTVSS | low polyreactivity
19 | QVQLVESGGGLVQAGGSLRLSCAASGRTFLGYAMGWYRQAPGKERELVAAISWDGTSTYYADSVKGRFTISRDNAKNTVYLQMNSLKPEDTAVYDCAAQLTDYQSKTLSYDYWGQGTQVTVSS | low polyreactivity
20 | QVQLVESGGGLVQAGGSLRLSCAASGRTFLGYAMGWYRQAPGKERELVAGITSGGRTYYADSVKGRFTNSRDNAKNTVYLQMNSLKPEDTAVYYCAADTHGYDPMDYWGQGTQVTVSS | high polyreactivity
21 | QVQLVESGGGLVQAGGSLRLSCAASGRTFLHYAMGWYRQAPGKEREFVAAIRTSGTSTYYADSVKGRFTISRDNAKNTVYLQMNSLKPEDTAVYYCAVARGSGWYWRSDYWGQGTQVTVSS | high polyreactivity
22 | QVQLVESGGGLVQAGGSLRLSCAASGRTFLINAMGWYRQAPGKERELVAGINRNGGTTYYADSVKGRFTISRDNAKNTVYLQMNSLKPEDTAVYYCAKRYPSWFNYWGQGTQVTVSS | high polyreactivity

Row | Sequence | polyreactivity (PSR sort gate)
23 | QVQLVESGGGLVQAGGSLRLSCAASGRTFLIYAMGWYRQAPGKERELVAAITNAVDSTYYADSVKGRFTISRDNAKNTVYLQMNSLKPEDTAVYYCNADTVVEWYSPSREYDYWGQGTQVTVSS | low polyreactivity
24 | QVQLVESGGGLVQAGGSLRLSCAASGRTFLPNDMGWYRQAPGKERELVAAITDSGGDTYYADSVKGRFTISRDNAKNTVYLQMNSLKPEDTAVYYCASDYYYYGSYYPVEYWGQGTQVTVSS | high polyreactivity
25 | QVQLVESGGGLVQAGGSLRLSCAASGRTFLPNPMGWYRPAPGKERELVAVITSVGSTNYADSVKGRCTISRDNAKNTVYLQMNSLKPEDTAVYFCAALKPRTRRAGFNYWGQGTQVTVSS | low polyreactivity
26 | QVQLVESGGGLVQAGGSLRLSCAASGRTFLPYAMGWYRQAPGKERELVAAIDSSGGSTYYADSVKGRFTISRDNAKNTVYLQMNSLKPEDTAVYYCAADLYSSSYLYDSWGQGTQVTVSS | low polyreactivity
27 | QVQLVESGGGLVQAGGSLRLSCAASGRTFLPYAMGWYRQAPGKERELVAAIDSSGGSTYYADSVKGRFTISRDNAKNTVYLQMNSLKPEDTAVYYCAADLYSSYYLYDSWGQGTQVTVSS | low polyreactivity
28 | QVQLVESGGGLVQAGGSLRLSCAASGRTFLRNAMGWYRQAPGKERELVAAITSSGGRTYYADSVKGRFTISRDNAKNTVYLQMNSLKPEDTAVYYCATDTGWPGRDYWGQGTQVTVSS | high polyreactivity
29 | QVQLVESGGGLVQAGGSLRLSCAASGRTFLRNAMGWYRQAPGKERELVAAITSSGGRTYYADSVKGRFTISRDNAKNTVYLQMNSLKPEDTAVYYCAVDVTVREWFEYYYWGQGTQVTVSS | high polyreactivity
30 | QVQLVESGGGLVQAGGSLRLSCAASGRTFLRNDMVWYRQAPGKERELVAAISYSGGRTYYAVSVKGRFTISRDNAKNTVYLQMNSLKPEDTAVYYCAADRFFKAIRPYDYWGQGTQVTVSS | high polyreactivity
31 | QVQLVESGGGLVQAGGSLRLSCAASGRTFLRYARGWYRQAPGKERELVAAISWSGGRTYYADSVKGRFTISRDNAKNTVYLQMNSLKPEDTAVYYCNKVVLYGAHYYYWGQGTQVTVSS | high polyreactivity
32 | QVQLVESGGGLVQAGGSLRLSCAASGRTFLSYAMGWYRQAPGKDRELVAAIRRGSSTYYADSVKGRFTISRDNAKNTVYLQMNSLKPEDTAVYYCAARGRYRIGPGRYGKRYDYWGQGTQVTVSS | high polyreactivity
33 | QVQLVESGGGLVQAGGSLRLSCAASGRTFLVYAMGWYRQAPGKERELVAAISYSDGNTYYADSVKGRFTISRDHAKNTVYLQMNSLKPEDTAVYYCNAVTYGYPYDYWGQGTQVTVSS | low polyreactivity
34 | QVQLVESGGGLVQAGGSLRLSCAASGRTFLVYAMGWYRQAPGKERELVAAITSGGDTYADSVKGRFTISRDNAKNTVYLQMNSLKPEDTAVYYCAVQPDYFIVLWEYDYWGQGTQVTVSS | high polyreactivity
35 | QVQLVESGGGLVQAGGSLRLSCAASGRTFLVYAMGWYRQAPGKERELVADITGRGGITYYADSVKGRFTISRDNAKNTVYLQMNSLKPEDTAVYYCAAERYNSKTIYRYDYWGQGTQVTVSS | high polyreactivity
36 | QVQLVESGGGLVQAGGSLRLSCAASGRTFLVYAMGWYRQAPGKERELVATIRASTGSTYADSVKGRFTISRDNAKNTVYLQMNSLKPEDTAVYYCNAVHYFLYGYYSWGQGTQVTVSS | high polyreactivity
37 | QVQLVESGGGLVQAGGSLRLSCAASGRTFLVYARGWYRQAPGKDRELVAAISISSGSTYYADSVKGRFTISRDNAKNTVYLQMNSLKPEDTAVYYCAAVYTYVKRASENDYWGQGTQVTVSS | low polyreactivity
38 | QVQLVESGGGLVQAGGSLRLSCAASGRTFLVYTMGWYREAPGKERELVAAISWSDGSTYYADSVKGRFTISRDNAKNTVYLQMNSLKPEDTADYYCAARRTGYLYRYGYWGQGTQVTVSS | low polyreactivity
39 | QVQLVESGGGLVQAGGSLRLSCAASGRTFLWNDMGWYRQAPGKERELVAAITGSDGTYADSVKGRFTISRDNAKNTVYLQMNSLKPEDTAVYYCAAVYSYQNEGYDYWGQGTQVTVSS | low polyreactivity
40 | QVQLVESGGGLVQAGGSLRLSCAASGRTFLYNAMGWYRQAPGKERELVATITWSDDGTYYADSVKGRFTISRDNAKNTVYLQMNSLKPEDTAVYYCAAVYPRTRVKMDYWGQGTQVTVSS | low polyreactivity
41 | QVQLVESGGGLVQAGGSLRLSCAASGRTFLYYAMGWFRQAPGKERELVAAISASGGSTYYADSVKGRFTISRDNAKNTVYLQMNSLKPEETAVYSCARYTGWGSRYDYWGQGTQVTVSS | high polyreactivity
42 | QVQLVESGGGLVQAGGSLRLSCAASGRTFLYYAMGWYRQAPGKERELVAAISTGSSTYYADSVKGRFTISRDNAKNTVYLQMNSLKPEDTAVYYCAAGSIVGYPGFSTDDYWGQGTQVTVSS | low polyreactivity
43 | QVQLVESGGGLVQAGGSLRLSCAASGRTFLYYTMGWYRQAPGKERELVAVISIEGGGTYADSVKGRFTISRDNAKNTVYLQMNSLKPEDTAVYYCAVDALSITYGYWGQGTQVNVSS | low polyreactivity
